Residue numbers refer to the chain shown, from its start.
B1: fibrinogen, P02671 36-866; P02675 45-491; P02679 27-453 (complex)
chain 1: ADSGEGDFLAEGGGVRGPRVVERHQSACKDSDWPFCSDEDWNYKCPSGCRMKGLIDEVNQDFTNRINKLKNSLFEYQKNNKDSHSLTTNIMEILRGDFSSANNRDNTYNRVSEDLRSRIEVLKRKVIEKVQHIQLLQKNVRAQLVDMKRLEVDIDIKIRSCRGSCSRALAREVDLKDYEDQQKQLEQVIAKDLLPSRDRQHLPLIKMKPVPDLVPGNFKSQLQKVPPEWKALTDMPQMRMELERPGGNEITRGGSTSYGTGSETESPRNPSSAGSWNSGSSGPGSTGNRNPGSSGTGGTATWKPGSSGPGSTGSWNSGSSGTGSTGNQNPGSPRPGSTGTWNPGSSERGSAGHWTSESSVSGSTGQWHSESGSFRPDSPGSGNARPNNPDWGTFEEVSGNVSPGTRREYHTEKLVTSKGDKELRTGKEKVTSGSTTTTRRSCSKTVTKTVIGPDGHKEVTKEVVTSEDGSDCPEAMDLGTLSGIGTLDGFRHRHPDEAAFFDTASTGKTFPGFFSPMLGEFVSETESRGSESGIFTNTKESSSHHPGIAEFPSRGKSSSYSKQFTSSTSYNRGDSTFESKSYKMADEAGSEADHEGTHSTKRGHAKSRPV
chain 2: QGVNDNEEGFFSARGHRPLDKKREEAPSLRPAPPPISGGGYRARPAKAAATQKKVERKAPDAGGCLHADPDLGVLCPTGCQLQEALLQQERPIRNSVDELNNNVEAVSQTSSSSFQYMYLLKDLWQKRQKQVKDNENVVNEYSSELEKHQLYIDETVNSNIPTNLRVLRSILENLRSKIQKLESDVSAQMEYCRTPCTVSCNIPVVSGKECEEIIRKGGETSEMYLIQPDSSVKPYRVYCDMNTENGGWTVIQNRQDGSVDFGRKWDPYKQGFGNVATNTDGKNYCGLPGEYWLGNDKISQLTRMGPTELLIEMEDWKGDKVKAHYGGFTVQNEANKYQISVNKYRGTAGNALMDGASQLMGENRTMTIHNGMFFSTYDRDNDGWLTSDPRKQCSKEDGGGWWYNRCHAANPNGRYYWGGQYTWDMAKHGTDDGVVWMNWKGSWYSMRKMSMKIRPFFPQQ
chain 3: YVATRDNCCILDERFGSYCPTTCGIADFLSTYQTKVDKDLQSLEDILHQVENKTSEVKQLIKAIQLTYNPDESSKPNMIDAATLKSRKMLEEIMKYEASILTHDSSIRYLQEIYNSNNQKIVNLKEKVAQLEAQCQEPCKDTVQIHDITGKDCQDIANKGAKQSGLYFIKPLKANQQFLVYCEIDGSGNGWTVFQKRLDGSVDFKKNWIQYKEGFGHLSPTGTTEFWLGNEKIHLISTQSAIPYALRVELEDWNGRTSTADYAMFKVGPEADKYRLTYAYFAGGDAGDAFDGFDFGDDPSDKFFTSHNGMQFSTWDNDNDKFEGNCAEQDGSGWWMNKCHAGHLNGVYYQGGTYSKASTPNGYDNGIIWATWKTRWYSMKKTTMKIIPFNRLTIGEGQQHHLGGAKQAGDV
modifications: not checked
B2: GPSP-P40-I60-C labelled with Alexa Fluor 488 or Alexa Fluor 546 (designed binder)
chain: GPSPFPAAGPGVGGSVPGPGVPGPGVPGPGVPGPGVPGVGGSVPGPGVPGPGVPGPGVPGPGVPGVGGSVPGPGVPGPGVPGPGVPGPGVPGVGGSVPGPGVPGPGVPGPGVPGPGVPGVGGSVPGPGVPGPGVPGPGVPGPGVPGVGGSVPGPGVPGPGVPGPGVPGPGVPGVGGSVPGPGVPGPGVPGPGVPGPGVPGVGGSVPGPGVPGPGVPGPGVPGPGVPGVGVPGIGVPGIGVPGIGVPGIGVPGVGVPGIGVPGIGVPGIGVPGIGVPGVGVPGIGVPGIGVPGIGVPGIGVPGVGVPGIGVPGIGVPGIGVPGIGVPGVGVPGIGVPGIGVPGIGVPGIGVPGVGVPGIGVPGIGVPGIGVPGIGVPGVGVPGIGVPGIGVPGIGVPGIGVPGVGVPGIGVPGIGVPGIGVPGIGVPGVGVPGIGVPGIGVPGIGVPGIGVPGVGVPGIGVPGIGVPGIGVPGIGVPGVGVPGIGVPGIGVPGIGVPGIGVPGVGVPGIGVPGIGVPGIGVPGIGVPGWPGGC
modifications: Alexa Fluor 488 or Alexa Fluor 546 on the C-terminal cysteine (sulfhydryl-maleimide)

Experiments:
GPRP-A80-I60-C = biological target: T1, GPRP-A80-I60-C; assay: ELISA
T1 chain: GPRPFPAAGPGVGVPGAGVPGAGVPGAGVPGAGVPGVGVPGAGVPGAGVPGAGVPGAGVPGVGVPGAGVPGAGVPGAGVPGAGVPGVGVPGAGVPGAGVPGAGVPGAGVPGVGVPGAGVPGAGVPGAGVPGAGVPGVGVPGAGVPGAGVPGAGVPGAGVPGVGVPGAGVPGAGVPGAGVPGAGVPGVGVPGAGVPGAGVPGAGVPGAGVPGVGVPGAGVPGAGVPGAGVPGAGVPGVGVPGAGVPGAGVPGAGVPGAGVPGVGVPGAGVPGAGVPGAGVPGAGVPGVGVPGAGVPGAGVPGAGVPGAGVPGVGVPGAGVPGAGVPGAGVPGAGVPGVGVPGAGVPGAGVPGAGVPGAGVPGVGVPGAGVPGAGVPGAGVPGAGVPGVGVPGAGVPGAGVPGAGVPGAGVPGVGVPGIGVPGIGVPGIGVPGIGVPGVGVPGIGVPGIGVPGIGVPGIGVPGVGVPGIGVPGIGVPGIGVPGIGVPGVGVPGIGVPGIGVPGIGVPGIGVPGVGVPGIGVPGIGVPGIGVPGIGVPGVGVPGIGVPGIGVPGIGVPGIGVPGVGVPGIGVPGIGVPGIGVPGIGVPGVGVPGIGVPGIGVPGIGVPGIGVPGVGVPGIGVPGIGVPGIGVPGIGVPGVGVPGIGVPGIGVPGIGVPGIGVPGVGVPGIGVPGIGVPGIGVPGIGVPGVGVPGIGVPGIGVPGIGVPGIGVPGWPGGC

GPRP-P40-I60-C = biological target: T2, GPRP-P40-I60-C; assay: ELISA
T2 chain: B2 chain with S3R

GPRP-A80-I60 = biological target: T3, GPRP-A80-I60; assay: plate-based fluorescence binding assay
T3 chain: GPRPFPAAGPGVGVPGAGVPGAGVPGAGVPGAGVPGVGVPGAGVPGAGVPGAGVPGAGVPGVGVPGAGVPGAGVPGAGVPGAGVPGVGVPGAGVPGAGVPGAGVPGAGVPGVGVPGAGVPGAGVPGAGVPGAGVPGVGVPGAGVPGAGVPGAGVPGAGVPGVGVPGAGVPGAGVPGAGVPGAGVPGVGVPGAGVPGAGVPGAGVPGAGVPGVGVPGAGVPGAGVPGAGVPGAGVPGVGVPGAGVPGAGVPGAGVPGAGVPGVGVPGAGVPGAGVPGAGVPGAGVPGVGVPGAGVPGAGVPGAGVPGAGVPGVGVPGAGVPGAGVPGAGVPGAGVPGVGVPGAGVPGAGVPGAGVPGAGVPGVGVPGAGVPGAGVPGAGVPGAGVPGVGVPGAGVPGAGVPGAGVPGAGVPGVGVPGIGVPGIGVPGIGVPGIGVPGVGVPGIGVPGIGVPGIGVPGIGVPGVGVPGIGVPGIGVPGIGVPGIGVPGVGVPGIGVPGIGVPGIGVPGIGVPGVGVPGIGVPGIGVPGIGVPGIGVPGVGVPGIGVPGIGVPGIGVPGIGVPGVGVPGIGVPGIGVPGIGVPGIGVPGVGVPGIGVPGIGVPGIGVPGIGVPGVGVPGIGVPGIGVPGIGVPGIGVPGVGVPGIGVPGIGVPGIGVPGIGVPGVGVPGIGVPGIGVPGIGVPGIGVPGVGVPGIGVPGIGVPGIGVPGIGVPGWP

GPRP-P40-I60 = biological target: T4, GPRP-P40-I60; assay: plate-based fluorescence binding assay
T4 chain: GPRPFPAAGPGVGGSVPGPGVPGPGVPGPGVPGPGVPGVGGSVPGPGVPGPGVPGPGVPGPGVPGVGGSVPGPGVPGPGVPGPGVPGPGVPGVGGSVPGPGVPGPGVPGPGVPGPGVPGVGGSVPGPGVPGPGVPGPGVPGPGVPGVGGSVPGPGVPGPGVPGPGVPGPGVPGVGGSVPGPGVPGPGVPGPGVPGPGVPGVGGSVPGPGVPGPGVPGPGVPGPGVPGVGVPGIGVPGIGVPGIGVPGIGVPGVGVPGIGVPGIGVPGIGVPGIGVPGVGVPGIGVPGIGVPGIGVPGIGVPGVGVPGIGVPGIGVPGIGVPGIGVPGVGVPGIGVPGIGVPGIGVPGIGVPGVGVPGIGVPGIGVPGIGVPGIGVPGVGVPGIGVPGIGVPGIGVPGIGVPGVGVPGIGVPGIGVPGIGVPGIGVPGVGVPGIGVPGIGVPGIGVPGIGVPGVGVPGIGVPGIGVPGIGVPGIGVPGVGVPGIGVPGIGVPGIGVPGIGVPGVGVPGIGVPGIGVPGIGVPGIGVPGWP

Binder | % normalized signal (GPRPFPAC-coated wells = 100 %), saturated wells (GPRP-A80-I60-C) [%] | % normalized signal (GPRPFPAC-coated wells = 100 %), saturated wells (GPRP-P40-I60-C) [%] | binding result (GPRP-A80-I60) | binding result (GPRP-P40-I60)
B1 | > 100 | > 100 |  | 
B2 |  |  | binds | binds

Source: publication PMC3925836 (Advanced healthcare materials, 2013)
